Here are results for one molecule from US20200377560A1 (WYL SCIENCES, published 2020).

This experiment addresses T1, bovine serum albumin (bovine, UniProt P02769 25-607).
T1 construct: Control protein in the dot immunoblot; also called BSA
Nature of the experiment: dot immunoblot, BSA dotted as control. The source says:
The fusion protein containing the full-length royalactin with a histidine tag (SEQ ID NO: 2), which was confirmed to have biological activity in Example 1, was produced in bacteria and purified. This protein was used to generate monoclonal antibodies by injection into mice with subsequent harvest of the spleen for generation of multiple hybridomas. Individual hybridomas were isolated and the antibody produced was screened using dot immunoblot assays. Various concentrations of royalactin were dotted onto the blot with bovine serum albumin (BSA) as a control.

T1 sequence (P02769 25-607 limits assumed): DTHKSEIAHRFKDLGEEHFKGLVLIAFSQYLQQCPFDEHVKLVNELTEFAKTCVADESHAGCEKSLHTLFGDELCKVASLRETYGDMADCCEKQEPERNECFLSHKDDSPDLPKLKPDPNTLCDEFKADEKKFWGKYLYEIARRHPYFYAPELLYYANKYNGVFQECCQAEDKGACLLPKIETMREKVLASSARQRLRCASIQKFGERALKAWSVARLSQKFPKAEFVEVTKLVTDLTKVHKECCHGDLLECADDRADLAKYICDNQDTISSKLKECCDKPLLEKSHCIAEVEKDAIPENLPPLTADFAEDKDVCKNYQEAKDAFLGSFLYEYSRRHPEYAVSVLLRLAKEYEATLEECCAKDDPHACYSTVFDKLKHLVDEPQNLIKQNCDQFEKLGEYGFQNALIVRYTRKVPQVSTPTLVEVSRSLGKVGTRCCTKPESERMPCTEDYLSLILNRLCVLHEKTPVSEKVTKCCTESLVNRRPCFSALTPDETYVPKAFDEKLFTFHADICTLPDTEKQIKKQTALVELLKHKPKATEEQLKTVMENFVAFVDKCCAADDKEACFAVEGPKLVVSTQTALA

B1: monoclonal antibody #19 (4G6C5) (antibody, V domains shown)
VH: VMLVESGGGLVKPGGSLKLSCAASGFTFSRYAMSWNRQTPEKRLEWVATISPGGGYIYYSDSVKGRFTISRDNARNTLYLQMSSLRSEDTAMYYCAGDYVDYWGQGTTLTVSS
VL: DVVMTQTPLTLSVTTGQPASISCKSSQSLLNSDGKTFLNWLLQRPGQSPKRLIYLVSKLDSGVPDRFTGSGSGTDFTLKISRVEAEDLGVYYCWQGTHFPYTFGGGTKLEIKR
notes: Mouse hybridoma monoclonal antibody; also called antibody 4G6C5; hybridoma #19
Regarding B1, the binding result was “no binding (tested: 2 ng)”.
